Measurements reported in US9383360B2, “Compositions and methods relating to lyme disease” (The United States of America, as represented by the …, priority 2012, dated 2016).

Assays:
Versican = Versican (Homo sapiens, UniProt P13611); assay: BbHtrA proteolysis assay, versican substrate; assay type: biochemical; conditions: SDS-PAGE, FIG. 5
Experimental: (§1) For proteolysis assays described in Examples herein, purified protein substrates (200-600 nM) and proteases (100-150 nM) were diluted in assay buffer (50 mM HEPES, pH 7.4, 5 mM CaCl2) and incubated overnight at 37° C. Samples were boiled for 4 minutes to inactivate the proteases. Proteoglycans were deglycosylated by overnight incubation at 37° C. with 0.01 U chondroitinase ABC (Seikagaku). Reactions were stopped by the addition of SDS/PAGE sample buffer, boiled for 4 minutes, and electrophoresed on pre-cast Tris-glycine gels (BioRad). Reaction products were visualized by silver staining.
(§2) Purified proteins were incubated with BbHtrA or BbHtrA^S226A as described herein. HtrA (also known as DegP) proteases belong to the family of serine proteases which contain a highly reactive serine residue in their active site. This serine (Ser210 in DegP) is part of the canonical His-Ser-Asp catalytic triad and mutation of the catalytic serine abolishes proteolytic activity (Skorko-Glonek et al., 1995). In BbHtrA, residues His119, Ser226 and Asp149 form the catalytic triad and mutation of serine 226 to alanine abolished proteolytic activity as expected (FIG. 5).
(§3) Reaction products were separated by SDS-PAGE and silver stained. Native collagen II and recombinant tenascin C were not degraded by BbHtrA indicating selectivity for proteoglycans, E-cadherin and fibronectin. […]

Decorin = assay: BbHtrA proteolysis assay, decorin substrate; assay type: biochemical, bovine, human; conditions: SDS-PAGE, FIG. 5
Experimental: as §1, §2, §3

Collagen type II = target: T1, Collagen type II (Homo sapiens, UniProt P02458); assay: BbHtrA proteolysis assay, collagen type II substrate; assay type: biochemical; conditions: SDS-PAGE, silver stain
T1 construct: Native collagen II and recombinant tenascin C were not degraded by BbHtrA; from tissue
Experimental: as §1, §2, §3

Casein = assay: BbHtrA proteolysis assay, casein substrate; assay type: biochemical, bovine; conditions: SDS-PAGE, FIG. 5
Experimental: as §1, §2, §3

E-cadherin = target: T2, E-cadherin (Homo sapiens, UniProt P12830); assay: BbHtrA proteolysis assay, E-cadherin substrate; assay type: biochemical; conditions: SDS-PAGE, FIG. 5
T2 sequence (P12830 155-882): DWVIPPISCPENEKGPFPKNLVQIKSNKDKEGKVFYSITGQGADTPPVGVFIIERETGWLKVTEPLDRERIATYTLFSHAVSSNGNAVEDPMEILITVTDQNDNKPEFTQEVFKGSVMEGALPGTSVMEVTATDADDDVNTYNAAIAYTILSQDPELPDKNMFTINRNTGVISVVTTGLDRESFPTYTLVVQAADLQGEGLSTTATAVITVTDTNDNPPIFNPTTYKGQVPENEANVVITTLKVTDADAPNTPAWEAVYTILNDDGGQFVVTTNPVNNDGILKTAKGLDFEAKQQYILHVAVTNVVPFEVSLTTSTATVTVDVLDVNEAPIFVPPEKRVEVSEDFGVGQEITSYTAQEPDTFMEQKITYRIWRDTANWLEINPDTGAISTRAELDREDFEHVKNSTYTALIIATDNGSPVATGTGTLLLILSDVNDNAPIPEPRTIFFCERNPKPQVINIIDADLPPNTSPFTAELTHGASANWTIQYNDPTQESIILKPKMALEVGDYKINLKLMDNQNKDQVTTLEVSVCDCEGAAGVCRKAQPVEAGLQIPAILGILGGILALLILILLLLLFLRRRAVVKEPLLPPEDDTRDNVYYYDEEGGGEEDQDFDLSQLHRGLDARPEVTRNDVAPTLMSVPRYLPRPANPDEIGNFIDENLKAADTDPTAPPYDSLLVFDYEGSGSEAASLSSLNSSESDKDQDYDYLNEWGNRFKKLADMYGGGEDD
Experimental: as §1, §2, §3

Tenascin C = Tenascin C (Homo sapiens, UniProt P24821); assay: BbHtrA proteolysis assay, tenascin C substrate; assay type: biochemical; conditions: SDS-PAGE, silver stain
Experimental: as §1, §2, §3

Plasma fibronectin = assay: BbHtrA proteolysis assay, plasma fibronectin substrate; assay type: biochemical, human; conditions: incubated overnight or 96 hours, SDS-PAGE, FIG. 8A
Experimental: as §1
BbHtrA generates pro-inflammatory amino terminal (Fnf-29) and carboxyl terminal (FnIII13-14) fibronectin fragments. […] Fibronectin was incubated with BbHtrA overnight (FIG. 8A, lane 1) or for 96 hours (FIG. 8A, lane 3). Reaction products were separated electrophoretically, and the bands were excised and analyzed by tandem LC MS/MS, FIG. 8B.

Brevican = target: T3, Brevican (Homo sapiens, UniProt Q96GW7); assay: BbHtrA proteolysis assay, brevican substrate; assay type: biochemical; conditions: SDS-PAGE, FIG. 5
T3 sequence (Q96GW7 23-911): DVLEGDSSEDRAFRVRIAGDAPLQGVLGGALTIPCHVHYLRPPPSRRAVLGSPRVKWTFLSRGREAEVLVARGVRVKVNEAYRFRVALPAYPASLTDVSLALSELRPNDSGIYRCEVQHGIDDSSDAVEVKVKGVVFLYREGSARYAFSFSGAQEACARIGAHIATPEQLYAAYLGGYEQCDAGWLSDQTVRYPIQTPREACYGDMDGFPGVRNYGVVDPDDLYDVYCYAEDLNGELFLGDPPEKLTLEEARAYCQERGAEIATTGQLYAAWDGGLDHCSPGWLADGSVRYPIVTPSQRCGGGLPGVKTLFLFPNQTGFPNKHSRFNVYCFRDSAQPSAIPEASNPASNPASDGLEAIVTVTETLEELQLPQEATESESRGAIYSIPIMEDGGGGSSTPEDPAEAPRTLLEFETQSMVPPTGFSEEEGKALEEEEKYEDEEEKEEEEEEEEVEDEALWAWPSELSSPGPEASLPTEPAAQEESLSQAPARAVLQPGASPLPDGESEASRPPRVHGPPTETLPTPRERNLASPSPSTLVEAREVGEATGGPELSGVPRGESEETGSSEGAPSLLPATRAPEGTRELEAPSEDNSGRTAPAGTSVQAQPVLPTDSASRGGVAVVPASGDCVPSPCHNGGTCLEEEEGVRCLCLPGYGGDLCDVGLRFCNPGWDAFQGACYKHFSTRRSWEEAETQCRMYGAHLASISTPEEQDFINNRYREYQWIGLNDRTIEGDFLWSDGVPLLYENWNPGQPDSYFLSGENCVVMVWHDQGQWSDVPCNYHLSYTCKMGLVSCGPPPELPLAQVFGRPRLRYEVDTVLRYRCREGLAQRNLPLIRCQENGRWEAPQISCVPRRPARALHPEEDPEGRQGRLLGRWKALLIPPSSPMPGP
Experimental: as §1, §2, §3

T1 sequence (P02458 182-1241 limits assumed): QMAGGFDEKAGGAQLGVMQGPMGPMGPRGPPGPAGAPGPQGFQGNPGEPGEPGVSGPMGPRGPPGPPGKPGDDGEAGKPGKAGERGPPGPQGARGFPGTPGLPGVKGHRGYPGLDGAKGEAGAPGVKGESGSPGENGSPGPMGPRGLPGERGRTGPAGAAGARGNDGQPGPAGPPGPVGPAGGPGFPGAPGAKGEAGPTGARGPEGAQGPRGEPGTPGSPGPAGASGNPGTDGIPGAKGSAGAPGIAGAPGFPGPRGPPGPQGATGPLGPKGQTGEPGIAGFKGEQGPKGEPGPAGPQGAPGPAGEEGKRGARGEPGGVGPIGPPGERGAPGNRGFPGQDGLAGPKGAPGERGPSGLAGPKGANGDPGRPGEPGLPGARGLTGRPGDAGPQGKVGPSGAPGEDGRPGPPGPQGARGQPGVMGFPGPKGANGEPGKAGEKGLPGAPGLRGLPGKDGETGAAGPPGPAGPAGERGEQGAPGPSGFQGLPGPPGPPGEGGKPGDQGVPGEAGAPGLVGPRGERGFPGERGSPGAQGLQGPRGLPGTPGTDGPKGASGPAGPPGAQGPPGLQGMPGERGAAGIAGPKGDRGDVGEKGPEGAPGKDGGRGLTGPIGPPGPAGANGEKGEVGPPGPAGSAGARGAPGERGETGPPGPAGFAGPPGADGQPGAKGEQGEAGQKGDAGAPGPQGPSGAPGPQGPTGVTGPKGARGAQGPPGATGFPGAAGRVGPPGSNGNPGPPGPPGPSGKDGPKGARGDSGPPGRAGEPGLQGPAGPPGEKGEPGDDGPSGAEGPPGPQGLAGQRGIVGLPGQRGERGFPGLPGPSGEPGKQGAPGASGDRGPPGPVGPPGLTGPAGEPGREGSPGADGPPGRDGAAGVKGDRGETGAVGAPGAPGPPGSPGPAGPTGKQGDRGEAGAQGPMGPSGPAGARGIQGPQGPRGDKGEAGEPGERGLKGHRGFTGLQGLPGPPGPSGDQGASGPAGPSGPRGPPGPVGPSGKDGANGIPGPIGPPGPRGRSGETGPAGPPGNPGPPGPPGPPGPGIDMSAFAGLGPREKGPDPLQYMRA
Versican, sequence (P13611 21-3396): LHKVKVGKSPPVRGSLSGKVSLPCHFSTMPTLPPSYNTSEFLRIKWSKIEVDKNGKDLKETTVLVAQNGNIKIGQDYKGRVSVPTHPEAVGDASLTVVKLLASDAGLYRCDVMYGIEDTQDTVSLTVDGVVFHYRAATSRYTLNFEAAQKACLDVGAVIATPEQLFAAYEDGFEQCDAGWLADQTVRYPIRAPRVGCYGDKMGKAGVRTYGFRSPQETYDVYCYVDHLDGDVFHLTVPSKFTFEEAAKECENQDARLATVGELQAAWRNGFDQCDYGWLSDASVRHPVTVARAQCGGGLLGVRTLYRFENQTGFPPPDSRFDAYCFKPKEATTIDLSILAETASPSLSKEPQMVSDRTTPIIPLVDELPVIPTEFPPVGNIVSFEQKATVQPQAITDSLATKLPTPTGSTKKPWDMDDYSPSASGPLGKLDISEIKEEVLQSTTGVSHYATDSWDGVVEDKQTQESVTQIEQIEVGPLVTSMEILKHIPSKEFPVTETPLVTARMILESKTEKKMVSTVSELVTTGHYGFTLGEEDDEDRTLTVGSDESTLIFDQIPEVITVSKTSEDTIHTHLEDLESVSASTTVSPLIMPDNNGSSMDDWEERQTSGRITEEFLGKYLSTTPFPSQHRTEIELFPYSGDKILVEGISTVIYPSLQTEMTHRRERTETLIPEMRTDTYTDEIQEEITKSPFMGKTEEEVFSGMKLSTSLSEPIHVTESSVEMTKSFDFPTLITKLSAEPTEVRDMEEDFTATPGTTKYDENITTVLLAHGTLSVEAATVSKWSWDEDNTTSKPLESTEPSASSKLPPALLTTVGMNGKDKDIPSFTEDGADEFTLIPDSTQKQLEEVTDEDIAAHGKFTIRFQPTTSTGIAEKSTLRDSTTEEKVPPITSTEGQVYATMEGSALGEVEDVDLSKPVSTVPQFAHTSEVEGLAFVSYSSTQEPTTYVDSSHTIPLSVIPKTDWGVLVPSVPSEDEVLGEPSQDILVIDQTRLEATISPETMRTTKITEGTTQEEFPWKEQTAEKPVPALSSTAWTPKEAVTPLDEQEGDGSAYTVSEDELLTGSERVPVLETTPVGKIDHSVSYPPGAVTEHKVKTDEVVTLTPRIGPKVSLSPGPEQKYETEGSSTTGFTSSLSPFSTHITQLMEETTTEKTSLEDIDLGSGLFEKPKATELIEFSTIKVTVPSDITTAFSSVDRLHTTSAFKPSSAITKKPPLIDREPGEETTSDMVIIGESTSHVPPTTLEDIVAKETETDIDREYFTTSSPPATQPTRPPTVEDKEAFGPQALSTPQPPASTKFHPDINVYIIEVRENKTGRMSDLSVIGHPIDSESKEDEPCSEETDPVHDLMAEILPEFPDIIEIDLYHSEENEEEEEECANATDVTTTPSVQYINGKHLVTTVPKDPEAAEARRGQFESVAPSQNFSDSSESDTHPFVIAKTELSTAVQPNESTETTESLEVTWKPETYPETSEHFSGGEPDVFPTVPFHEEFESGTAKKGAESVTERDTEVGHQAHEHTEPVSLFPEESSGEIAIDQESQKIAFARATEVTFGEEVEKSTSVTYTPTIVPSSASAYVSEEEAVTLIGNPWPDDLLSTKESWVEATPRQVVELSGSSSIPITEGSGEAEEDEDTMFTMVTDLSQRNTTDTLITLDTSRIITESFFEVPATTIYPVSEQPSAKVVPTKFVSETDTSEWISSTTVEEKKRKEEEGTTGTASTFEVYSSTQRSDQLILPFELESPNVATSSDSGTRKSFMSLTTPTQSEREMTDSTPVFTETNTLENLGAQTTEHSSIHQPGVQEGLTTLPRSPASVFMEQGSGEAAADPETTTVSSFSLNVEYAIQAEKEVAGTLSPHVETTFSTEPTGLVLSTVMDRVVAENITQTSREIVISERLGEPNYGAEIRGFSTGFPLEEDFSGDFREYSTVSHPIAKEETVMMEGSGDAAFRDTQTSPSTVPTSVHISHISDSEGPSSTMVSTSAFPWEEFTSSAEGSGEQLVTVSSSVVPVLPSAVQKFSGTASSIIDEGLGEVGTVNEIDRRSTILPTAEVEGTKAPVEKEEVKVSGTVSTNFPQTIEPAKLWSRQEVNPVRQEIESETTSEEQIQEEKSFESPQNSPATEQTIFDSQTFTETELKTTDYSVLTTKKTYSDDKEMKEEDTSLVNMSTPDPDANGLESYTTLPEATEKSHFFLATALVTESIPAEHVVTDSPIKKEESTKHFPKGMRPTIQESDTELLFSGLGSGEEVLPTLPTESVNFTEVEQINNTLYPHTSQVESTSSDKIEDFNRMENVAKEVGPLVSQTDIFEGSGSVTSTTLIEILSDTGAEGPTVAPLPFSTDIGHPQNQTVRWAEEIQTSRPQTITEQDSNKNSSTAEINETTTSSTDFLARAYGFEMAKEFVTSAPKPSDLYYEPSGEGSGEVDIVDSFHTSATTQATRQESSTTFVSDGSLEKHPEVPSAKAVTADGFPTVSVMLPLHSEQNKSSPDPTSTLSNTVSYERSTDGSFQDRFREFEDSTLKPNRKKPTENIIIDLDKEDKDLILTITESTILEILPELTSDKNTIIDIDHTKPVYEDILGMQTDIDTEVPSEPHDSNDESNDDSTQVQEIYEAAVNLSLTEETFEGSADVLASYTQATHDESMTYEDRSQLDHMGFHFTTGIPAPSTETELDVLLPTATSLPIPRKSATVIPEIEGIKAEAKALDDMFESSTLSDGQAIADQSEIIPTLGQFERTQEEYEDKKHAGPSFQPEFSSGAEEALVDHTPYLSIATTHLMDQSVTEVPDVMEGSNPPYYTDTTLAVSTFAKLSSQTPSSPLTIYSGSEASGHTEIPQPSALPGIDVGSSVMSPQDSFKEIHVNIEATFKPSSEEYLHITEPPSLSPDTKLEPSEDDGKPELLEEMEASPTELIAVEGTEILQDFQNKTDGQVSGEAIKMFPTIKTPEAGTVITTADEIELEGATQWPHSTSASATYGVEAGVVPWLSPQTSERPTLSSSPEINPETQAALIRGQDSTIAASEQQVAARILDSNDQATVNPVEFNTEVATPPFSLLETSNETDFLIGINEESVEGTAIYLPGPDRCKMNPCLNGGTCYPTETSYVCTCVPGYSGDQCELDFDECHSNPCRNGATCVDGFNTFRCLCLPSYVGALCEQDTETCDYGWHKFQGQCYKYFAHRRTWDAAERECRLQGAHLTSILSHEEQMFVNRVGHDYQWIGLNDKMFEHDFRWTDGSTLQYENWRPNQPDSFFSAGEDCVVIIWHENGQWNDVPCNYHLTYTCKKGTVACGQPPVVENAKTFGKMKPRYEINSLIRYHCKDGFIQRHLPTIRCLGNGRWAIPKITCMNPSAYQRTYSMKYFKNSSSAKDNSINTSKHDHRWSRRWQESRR

B1: BbHtrA: Recombinant wild type B. burgdorferi HtrA serine protease, mature protein amino acids 38-474, expressed in E. coli (SEQ ID NO:1, 9) (protein, listed as Borrelia burgdorferi)
chain: EEKDNTVRALQDSFREVSKKILPSSVEVHATGVIKQSFPIPFFFFDMPEFDSERKSNWAGSGVIIGRDSQKKSLFYVVTNSHVVDKATELEVVSYDKKKHKAKLIGKDEKKDIALISFESDDATIKVADLGDSDKLEIGDWVMAVGSPFQFSFTVTAGIVSGLQRSANPNLQSRNLFIQTDAAINRGNSGGPLVNIKGEVIGINAWIASNSGGNIGLGFAIPVNNIKSTVDFFLKGKKIESAWLGISFYPLKTRDSEVLKSLGVESNDVSAAIIASLYPGSPAVKSGLRAGDIIMKVNGVSMSVFQDVTSYISDFYAGEKVNVEILRGNVKKNIEIVLAVRPKDKELSSSKMLPGFVVYPLVEDIKAQLNLRNWIKGVVVDYIDKNLASNIKMKSGDVILSVNSKSVSNLREFYDALEVGKNTYKILRGNDSFKITF
In the case of B1, the Degradation of versican (Versican) is reported as “degrades”, the Degradation of decorin (Decorin) is reported as “degrades” and the “Degradation of native collagen II” value (Collagen type II) is reported as “not degraded”. For the same molecule, the Degradation of casein (Casein) was “degrades”, the “Degradation of E-cadherin” value (E-cadherin) was “degrades” and the “Degradation of recombinant tenascin C” value (Tenascin C) was “not degraded”. The Degradation of fibronectin (Plasma fibronectin) was “yielded distinct product bands” and the Degradation of brevican (Brevican) was “degrades”.
